In patent US20020141999A1 (IMMUNEX, published 2002):
One block for each binder: values may come before it.

Key:
[1] = target: T1, murine K12, full length, on transfected cells (mouse, UniProt Q9JL59 29-212); assay: Fc fusion binding to transfected cells, detected with 125I anti-human Fc
T1 construct: also called mouse K12; murine homologue of K12
T1 sequence: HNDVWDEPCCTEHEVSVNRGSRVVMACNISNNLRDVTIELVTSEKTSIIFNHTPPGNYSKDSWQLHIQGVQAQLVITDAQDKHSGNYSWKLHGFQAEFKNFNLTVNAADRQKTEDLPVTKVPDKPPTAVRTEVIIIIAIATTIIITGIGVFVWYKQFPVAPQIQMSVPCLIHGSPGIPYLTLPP

[2] = target: T2, human CD7, full length, on cells (human, UniProt P09564 26-240); assay: Fc fusion binding to transfected cells (Example 5)
T2 construct: On transfected COS-1 or CV-1/EBNA cells, and endogenous on Jurkat, KG-1 and NK cells; also called HuCD7
T2 sequence: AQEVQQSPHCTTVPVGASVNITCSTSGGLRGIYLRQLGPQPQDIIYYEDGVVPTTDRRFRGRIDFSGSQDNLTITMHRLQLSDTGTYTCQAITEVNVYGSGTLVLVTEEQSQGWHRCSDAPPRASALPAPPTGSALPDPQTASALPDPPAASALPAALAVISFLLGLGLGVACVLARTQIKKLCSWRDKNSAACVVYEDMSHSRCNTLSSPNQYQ

[3] = target: T3, human K12, full length, on transfected cells (human, UniProt Q8WVN6 29-248); assay: Fc fusion binding to transfected cells, detected with 125I anti-human Fc
T3 construct: also called SECTM1
T3 sequence: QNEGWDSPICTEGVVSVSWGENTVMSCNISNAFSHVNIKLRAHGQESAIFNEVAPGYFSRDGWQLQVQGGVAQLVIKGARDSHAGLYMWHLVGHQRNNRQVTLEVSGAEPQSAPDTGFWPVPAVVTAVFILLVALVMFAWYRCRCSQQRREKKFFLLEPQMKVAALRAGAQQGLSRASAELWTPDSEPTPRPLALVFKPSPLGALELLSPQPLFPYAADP

[4] = target: T4, murine CD7, full length, on cells (mouse, UniProt P50283 24-210); assay: HuK12-Fc on transfected COS-1 cells, 125I anti-human Fc, phosphorimager
T4 construct: On transfected COS-1 cells; For the proliferation read-out it is endogenous on BALB/c lymph node cells; also called MuCD7; mouse CD7
T4 chain: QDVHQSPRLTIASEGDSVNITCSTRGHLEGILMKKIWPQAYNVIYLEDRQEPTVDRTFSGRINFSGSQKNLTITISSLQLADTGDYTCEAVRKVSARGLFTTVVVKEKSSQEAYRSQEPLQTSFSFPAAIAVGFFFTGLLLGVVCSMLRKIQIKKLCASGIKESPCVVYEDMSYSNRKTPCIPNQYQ
Description: COS-1 cells were transfected with an expression vector encoding full length HuCD7 (human CD7), HuCD7-TR (human CD7 containing an internal deletion of the 36 amino acid tandem repeat), MuCD7 and vector only cDNA using DEAE-Dextran. However, any of a large number of expression vectors that are commercially available from numerous companies (e.g., Clontech Inc., Palo Alto, Calif.) could also be used to express the desired cDNAs. Two days post transfection the cells were assayed for the capacity to bind HuK12-Fc as previously described for other Fc fusion proteins (Lyman et al.,1993, Cell 75:1157-1167) with the following modifications. The binding media (RPMI 1640, 1%FBS, 0.02% NaAzide, 20 mM HEPES, pH7.2) was modified to include […] MnCl₂. In some experiments, the transfected cells were incubated with zero, 20 ug/ml or 2 mg/ml of Con A in BM/MM prior to binding with the Fc proteins. Following incubation for 30 minutes at room temperature and the continued presence of Con A, 1 ug/ml of either HuK12-Fc or MuK12-Fc was then added to the appropriate slides. Binding of the Fc protein was detected with [¹²⁵I] mouse anti-Human Fc antibody as previously described (Lyman, 1993). After binding the iodinated antibody, the cells were washed and then the radioactivity was quantitated by Storm Phosphorimager. […]

[5] = target: T2, human CD7, full length, on cells; assay: preliminary cell binding experiments on Jurkat and KG-1 cells

B1: human CD7-Fc fusion protein (Fc fusion)
chain: AQEVQQSPHCTTVPVGASVNITCSTSGGLRGIYLRQLGPQPQDIIYYEDGVVPTTDRRFRGRIDFSGSQDNLTITMHRLQLSDTGTYTCQAITEVNVYGSGTLVLVTEEQSQGWHRCSDAPPRASALPAPPTGSALPDPQTASALPDPPAASALP
notes: not shown: Fc portion of the CD7-Fc fusion is not described
binding result [1]: no binding

B4: human K12-Fc fusion protein (extracellular domain of human K12 fused to the Fc portion of human IgG1) (Fc fusion)
chain: QNEGWDSPICTEGVVSVSWGENTVMSCNISNAFSHVNIKLRAHGQESAIFNEVAPGYFSRDGWQLQVQGGVAQLVIKGARDSHAGLYMWHLVGHQRNNRQVTLEVSGAEPQSAPDTG
notes: Exists as a dimer in solution; No linker or junction is described; also called HuK12-Fc; HuK12Fc; not shown: Fc portion of human IgG1, as described in U.S. Pat. No. 5,457,035
fold less binding than to full length HuCD7 [4]: ~4 fold | Ka [5]: ~1e+08 M⁻¹

Results, then the binder that gave them:

binding result [2]: no binding
B2: mouse K12-Fc fusion protein (extracellular domain of murine K12 fused to the Fc portion of human IgG1) (Fc fusion)
chain: HNDVWDEPCCTEHEVSVNRGSRVVMACNISNNLRDVTIELVTSEKTSIIFNHTPPGNYSKDSWQLHIQGVQAQLVITDAQDKHSGNYSWKLHGFQAEFKNFNLTVNAADRQKTEDLPVTKVPDKPPTAVRTE
notes: Exists as a dimer in solution; also called MuK12-Fc; not shown: Fc portion of human IgG1, as described in U.S. Pat. No. 5,457,035

binding result [3]: no binding
B3: murine CD7-Fc fusion protein (Fc fusion)
chain: QDVHQSPRLTIASEGDSVNITCSTRGHLEGILMKKIWPQAYNVIYLEDRQEPTVDRTFSGRINFSGSQKNLTITISSLQLADTGDYTCEAVRKVSARGLFTTVVVKEKSSQEAYRSQEPLQTSFSFP
notes: also called mouse CD7-Fc; not shown: Fc portion of the CD7-Fc fusion is not described
